Measured values published in the supplement of paper PMC10567573.

B1: C9orf25 (parent)
chain: LARKGSLKNGSMGSPVNQQPKKNN

Variants of: B1
Test: protein stability index of a GFP-peptide fusion (GPS, HEK-293T) (PSI 1-6); higher = more stable
Conditions: c terminus: a fixed tail appended
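Also: lentivirally expressed fusions sorted by FACS into six bins by GFP to DsRed ratio, PSI derived from sequencing read proportions per bin multiplied by bin number.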

Variant	protein stability index
LARKGSLKNGSMGSPENQQPKKNN [V16E]	5.39
LARKGSLKNGSMGSPHNQQPKKNN [V16H]	5.1
LARKGSLKNGSMGSPDNQQPKKNN [V16D]	4.85
LARKGSLKNGSMGSPINQQPKKNN [V16I]	4.79
LARKGSLKNGSMGSPNNQQPKKNN [V16N]	4.4
LARKGSLKNGSMGSPLNQQPKKNN [V16L]	4.64
LARKGSLKNGSMGSPYNQQPKKNN [V16Y]	3.87
LARKGSLKNGSMGSPKNQQPKKNN [V16K]	4.14
LARKGSLKNGSMGSPQNQQPKKNN [V16Q]	5
LARKGSLKNGSMGSPFNQQPKKNN [V16F]	3.91
LARKGSLKNGSMGSPRNQQPKKNN [V16R]	4.69
LARKGSLKNGSMGSPSNQQPKKNN [V16S]	4.68
LARKGSLKNGSMGSPMNQQPKKNN [V16M]	4.62
LARKGSLKNGSMGSPTNQQPKKNN [V16T]	4.75
LARKGSLKNGSMGSPWNQQPKKNN [V16W]	4.01
LARKGSLKNGSMGSPCNQQPKKNN [V16C]	4.23
LARKGSLKNGSMGSPPNQQPKKNN [V16P]	4.89
LARKGSLKNGSMGSPANQQPKKNN [V16A]	4.69
LARKGSLKNGSMGSPVNQQKKKNN [P20K]	4.36
LARKGSLKNGSMGSPVNQQRKKNN [P20R]	4.25
LARKGSLKNGSMGSPVNQQLKKNN [P20L]	4.11
LARKGSLKNGSMGSPVNQQDKKNN [P20D]	5.23
LARKGSLKNGSMGSPVNQQSKKNN [P20S]	4.34
LARKGSLKNGSMGSPVNQQTKKNN [P20T]	3.92

Variant	protein stability index
LARKGSLKNGSMGSPVNQQMKKNN [P20M]	4.56
LARKGSLKNGSMGSPVNQQFKKNN [P20F]	4.03
LARKGSLKNGSMGSPVNQQEKKNN [P20E]	4.59
LARKGSLKNGSMGSPVNQQWKKNN [P20W]	4.1
LARKGSLKNGSMGSPVNQQQKKNN [P20Q]	4.72
LARKGSLKNGSMGSPVNQQNKKNN [P20N]	4.67
LARKGSLKNGSMGSPVNQQHKKNN [P20H]	3.98
LARKGSLKNGSMGSPVNQQCKKNN [P20C]	4.54
LARKGSLKNGSMGSPVNQQIKKNN [P20I]	4.65
LARKGSLKNGSMGSPVNQQGKKNN [P20G]	4.5
LARKGSLKNGSMGSPVNQQVKKNN [P20V]	5.07
LARKGSLKNGSMGSPVNQQYKKNN [P20Y]	4.32
LARKGSLKNGSMGSPVNQQAKKNN [P20A]	4.54
LARKGSLKNGSMGSIVNQQPKKNN [P15I]	4.66
LARKGSLKNGSMGSDVNQQPKKNN [P15D]	5.45
LARKGSLKNGSMGSYVNQQPKKNN [P15Y]	4.4
LARKGSLKNGSMGSQVNQQPKKNN [P15Q]	5.26
LARKGSLKNGSMGSAVNQQPKKNN [P15A]	4.42
LARKGSLKNGSMGSEVNQQPKKNN [P15E]	4.53
LARKGSLKNGSMGSCVNQQPKKNN [P15C]	4.48
LARKGSLKNGSMGSWVNQQPKKNN [P15W]	4.27
LARKGSLKNGSMGSFVNQQPKKNN [P15F]	4.2
LARKGSLKNGSMGSSVNQQPKKNN [P15S]	4.26
LARKGSLKNGSMGSNVNQQPKKNN [P15N]	4.42

Variant	protein stability index
LARKGSLKNGSMGSMVNQQPKKNN [P15M]	4.66
LARKGSLKNGSMGSTVNQQPKKNN [P15T]	4.95
LARKGSLKNGSMGSLVNQQPKKNN [P15L]	4.59
LARKGSLKNGSMGSGVNQQPKKNN [P15G]	5
LARKGSLKNGSMGSVVNQQPKKNN [P15V]	4.62
LARKGSLKNGSMGSKVNQQPKKNN [P15K]	4.34
LARKGSLKNGSMGSHVNQQPKKNN [P15H]	4.24
LARKGSLKNGSMGSRVNQQPKKNN [P15R]	3.8
LARKGSLKNGSMGSPVSQQPKKNN [N17S]	4.54
LARKGSLKNGSMGSPVFQQPKKNN [N17F]	4.31
LARKGSLKNGSMGSPVDQQPKKNN [N17D]	5.12
LARKGSLKNGSMGSPVLQQPKKNN [N17L]	4.64
LARKGSLKNGSMGSPVRQQPKKNN [N17R]	4.47
LARKGSLKNGSMGSPVCQQPKKNN [N17C]	4.53
LARKGSLKNGSMGSPVTQQPKKNN [N17T]	3.98
LARKGSLKNGSMGSPVKQQPKKNN [N17K]	4.47
LARKGSLKNGSMGSPVQQQPKKNN [N17Q]	4.74
LARKGSLKNGSMGSPVMQQPKKNN [N17M]	4.83
LARKGSLKNGSMGSPVHQQPKKNN [N17H]	5.11
LARKGSLKNGSMGSPVPQQPKKNN [N17P]	4.95
LARKGSLKNGSMGSPVYQQPKKNN [N17Y]	4.27
LARKGSLKNGSMGSPVWQQPKKNN [N17W]	3.62
LARKGSLKNGSMGSPVIQQPKKNN [N17I]	4.72
LARKGSLKNGSMGSPVAQQPKKNN [N17A]	4.25

Variant	protein stability index
LARKGSLKNGSMGSPVVQQPKKNN [N17V]	4.6
LARKGSLKNGSMGSPVEQQPKKNN [N17E]	5.07
LARKGSLKNGSMGSPVGQQPKKNN [N17G]	4.27
LARKGSLKNGSMGSPVNDQPKKNN [Q18D]	5.17
LARKGSLKNGSMGSPVNFQPKKNN [Q18F]	4.4
LARKGSLKNGSMGSPVNSQPKKNN [Q18S]	4.97
LARKGSLKNGSMGSPVNPQPKKNN [Q18P]	4.55
LARKGSLKNGSMGSPVNHQPKKNN [Q18H]	4.82
LARKGSLKNGSMGSPVNCQPKKNN [Q18C]	4.6
LARKGSLKNGSMGSPVNAQPKKNN [Q18A]	4.74
LARKGSLKNGSMGSPVNTQPKKNN [Q18T]	5.01
LARKGSLKNGSMGSPVNIQPKKNN [Q18I]	4.52
LARKGSLKNGSMGSPVNLQPKKNN [Q18L]	4.32
LARKGSLKNGSMGSPVNWQPKKNN [Q18W]	3.67
LARKGSLKNGSMGSPVNGQPKKNN [Q18G]	4.37
LARKGSLKNGSMGSPVNVQPKKNN [Q18V]	4.64
LARKGSLKNGSMGSPVNYQPKKNN [Q18Y]	4.17
LARKGSLKNGSMGSPVNMQPKKNN [Q18M]	4.64
LARKGSLKNGSMGSPVNKQPKKNN [Q18K]	5.08
LARKGSLKNGSMGSPVNRQPKKNN [Q18R]	4
LARKGSLKNGSMGSPVNNQPKKNN [Q18N]	4.59
LARKGSLKNGSMGSPVNEQPKKNN [Q18E]	5.18
